Measured values taken from patent publication US20190177416A1 (NANOMAB TECHNOLOGY, published 2019).

T1: PD-L2 (coated antigenic protein) (UniProt Q9BQ51 20-220, limits assumed)
T1 sequence (looked up): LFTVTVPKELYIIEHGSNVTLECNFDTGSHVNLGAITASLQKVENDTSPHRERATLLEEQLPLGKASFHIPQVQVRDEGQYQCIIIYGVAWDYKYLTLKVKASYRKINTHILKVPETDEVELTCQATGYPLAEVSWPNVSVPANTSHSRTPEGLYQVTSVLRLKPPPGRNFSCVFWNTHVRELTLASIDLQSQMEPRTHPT

B1: SEQ ID NO 12 (VHH)
VHH: QVQLQESGGGSVQAGGSLRLSCAASGYTRSSHCMVWFRQAPGKEREGVALIYTGSGSTYYADSVKGRFTISQDNAKKTLYLQMNSLKPEDTAMYYCAAGTSSSSCPGLLGPPRYYNWGQGTQVTVSS
notes: pMECS-expressed; also called anti-PD-L1 nanobody No. 12; VHH numbered 12
B2: SEQ ID NO 50 (VHH)
VHH: QVQLQESGGGLVQPGGSLRLSCIASGFTFSIMAMSWVRQAPGKGLEWVSTINSDGGKTYYADSVKGRFTISRDNAKNTLYLQLNSLRTEDMAMYYCRRCADIYCSGSGGWTGQGTQVTVSS
notes: pMECS-expressed; also called VHH numbered 50
B3: SEQ ID NO 79 (VHH)
VHH: QVQLQESGGGLVQPGGSLRLSCAASGLPFSIIAMSWVRQAPGKGIEWVSTINSGGGTTHYADSVKGRFTISRDNAKNTLYLQLNSLRTEDTAVYYCRRCADIYCSGSGGWTGLGTQVTVSS
notes: pMECS-expressed; also called VHH numbered 79
B4: SEQ ID NO 65 (VHH)
VHH: QVQLQESGGGLVQPGGSLRLSCAASGFTFSILAMSWVRQAPGKGLEWISTINNSGGTTFYADSVKGRFTISRDNAKNTLYLQLNSLRTEDTAMYYCRRCTDIYCSLSGGWTGQGTQVTVSS
notes: pMECS-expressed; also called VHH numbered 65
B5: SEQ ID NO 73 (VHH)
VHH: QVQLQESGGGLVQPGGSLRLSCEASGLPFSIIAMSWVRQAPGKGLEWVSTINSDGGTTHYADSVKGRFTISRDNAKNTLYLQLNSLRTEDTAMYYCRRCTDIYCSGFGGWTGQGTQVTVSS
notes: pMECS-expressed; also called VHH numbered 73
B6: SEQ ID NO 72 (VHH)
VHH: QVQLQESGGGLVQPGGSLRLSCEASGLPFSIIAMSWVRQAPGKGLEWVSTINSDGGTTHYADSVKGRFTISRDNAKNTLYLQLNSLRTEDTAMYYCRRCTDIYCSGSGGWTGQGTQVTVSS
notes: pMECS-expressed; also called VHH numbered 72
B7: SEQ ID NO 6 (VHH)
VHH: QVQLQESGGGSVQAGETLRLSCTASGDTFDASGVGWFRQVSGNECDLVSSINRDGTTYYAPSVAGRFTMSQNNAKNTVYLQMNSLKPDDTAVYYCATDPAVGIVVRSTCRGPFGYWGQGTQVTVSS
notes: pMECS-expressed; also called anti-PD-L1 nanobody No. 6; VHH numbered 6
B8: SEQ ID NO 11 (VHH)
VHH: QVQLQESGGGSVQAGETLRLSCTASGDTFDDSGVGWFRQVSGNECDLVSSINRDGTTYYAPSVAGRFTISQNNAKNTVYLQMNSLKPDDTAVYYCATVPAVGIVVRITCRGPFGYWGQGTQVTVSS
notes: pMECS-expressed; also called anti-PD-L1 nanobody No. 11; VHH numbered 11
B9: SEQ ID NO 3 (VHH)
VHH: QVQLQESGGGSVQTGGSLRLSCAASTSLYSYNYMAWFSQAPGKGREGVAAVYVGDGRPYYADSVKGRFTISLDSAKNAVYLQMNSLKPEDTAMYYCAAAPGPLSHNYWYTSANYDYWGQGTQVTVSS
notes: pMECS-expressed; also called anti-PD-L1 nanobody No. 3; VHH numbered 3
B10: SEQ ID NO 5 (VHH)
VHH: QVQLQESGGGSVQTGGSLRLSCAASTSIYSNNYMAWFSQAPGKGREGVAAVYIDDGRPYYADSVKGRFTISLDSAKNTVYLQMNGLKPEDTAMYYCAAAPGPLSRNYWYTSANYDYWGQGTQVTVSS
notes: pMECS-expressed; also called anti-PD-L1 nanobody No. 5; VHH numbered 5
B11: SEQ ID NO 4 (VHH)
VHH: QVQLQESGGGSVQTGGSLRLSCAASPSIYSANYMAWFSQAPGKGREGVAAVYIGDGRPYYADSVKGRFTISLDSAKNTVYLQMNSLKPEDTAMYYCAAAPGPLGHNYWYTSANYDYWGQGTQVTVSS
notes: pMECS-expressed; also called anti-PD-L1 nanobody No. 4; VHH numbered 4
B12: SEQ ID NO 7 (VHH)
VHH: QVQLQESGGGSVQTGGSLRLSCACSTSIYSTNYMAWFSQAPGKGREGVAAVYIGDGRPYYADSVKGRFTISLDSAKNTVYLQMNSLKPEDTAMYYCAAAPGPLSRNYWYTSANYDYWGQGTQVTVSS
notes: pMECS-expressed; also called anti-PD-L1 nanobody No. 7; VHH numbered 7
B13: SEQ ID NO 9 (VHH)
VHH: QVQLQESGGGSVQAGGSLRLSCAASGYTYSNDGMGWFRQIPGKEREGVAAISPTGRRTEYADSVQGRFTISRDNAKNMLSLQMNSLKPEDTGMYYCAREGSGSFSLQNSAVRSWGQGTQVTVSS
notes: pMECS-expressed; also called anti-PD-L1 nanobody No. 9; VHH numbered 9
B14: SEQ ID NO 34 (VHH)
VHH: QVQLQESGGGSVQAGGSLRLSCAASGYTRSLYCMGWFRQAPGREREGVAHVYTGDGSPYYADSVKGRFTISQDNGESTLYLQMNNLKPEDTAMYYCAAGTSALSRPYGPISYGYWYWGQGTQVTVSS
notes: pMECS-expressed; also called VHH numbered 34
B15: SEQ ID NO 10 (VHH)
VHH: QVQLQESGGGSVQAGGSLRLSCTAPGFTSKTCAMRWYRQAPGKEREFVSAISTVGTTTYADSVKGRFIISKDEAKDTVYLQINSLKPEDTAMYSCKTFACRHCIGQSCRTEPDYWGQGTQVTVSS
notes: pMECS-expressed; also called anti-PD-L1 nanobody No. 10; VHH numbered 10
B16: SEQ ID NO 71 (VHH)
VHH: QVQLQESGGGLVQPGGSLRLSCAASGFTFSSYDMSWVRQAPGKGIEWVSVINSGGSNTDYADSVKGRFTISRDNAKNTLYLQMNSLKTEDTAVYYCATAWMGYSDYLDGIARGQGTQVTVSS
notes: pMECS-expressed; also called VHH numbered 71
B17: SEQ ID NO 8 (VHH)
VHH: QVQLQESGGDSVQAGGSLRLACKVPGFTSNTCAMAWFRQAPGKEREFVSSISTGGTTGYAESAKGRFTLSKDEAKDTVYLQMNSLKPEDTAMYFCKSYACRTCIGRYCRTAPDAWGQGTQVTVSS
notes: pMECS-expressed; also called anti-PD-L1 nanobody No. 8; VHH numbered 8
B18: SEQ ID NO 2 (VHH)
VHH: QVQLQESGGGSVQAGGSLRLSCAVSRYSASNNVIKWMGWFRQAPGKEREGVAALYTSGGNTYYADSVKGRFTISRDYSENTVSLQMNNLKPEDTGMYYCATTVGTVLAGPLSARKYNYWGQGTQVTVSS
notes: pMECS-expressed; also called anti-PD-L1 nanobody No. 2; VHH numbered 2

Assays:
[1] = target: T2, human PD-L1 protein (coated antigen) (human, UniProt Q9NZQ7 19-238, limits assumed); assay: PE-ELISA, crude extract on coated PD-L1
T2 construct: Construct not described; also called PD-L1 antigen; antigenic protein PD-L1
T2 sequence (Q9NZQ7 19-238 limits assumed): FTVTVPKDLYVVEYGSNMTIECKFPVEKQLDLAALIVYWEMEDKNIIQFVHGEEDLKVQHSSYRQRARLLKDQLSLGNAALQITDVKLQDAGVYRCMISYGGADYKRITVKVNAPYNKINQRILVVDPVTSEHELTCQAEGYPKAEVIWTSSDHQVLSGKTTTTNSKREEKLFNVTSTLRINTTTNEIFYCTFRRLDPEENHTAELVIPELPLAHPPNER
Method: (1) From the cell culture dishes containing phage after 3-4 rounds of screening in Example 2, 1000 individual colonies were selected and inoculated into TB medium containing 100 μg/ml of ampicillin (1 liter of TB medium contains 2.3 g of potassium dihydrogen phosphate, 12.52 g of dipotassium hydrogen phosphate, 12 g of peptone, 24 g of yeast extract, 4 ml of glycerol), after growth to log phase, add a final concentration of […] of IPTG, culture at 28° C. overnight. (2) The crude antibody was obtained by the infiltration method, and the antibody was transferred to an antigen-coated ELISA plate and placed at room temperature for 1 hour. (3) Unbound antibody was washed away with PBST, and a mouse anti-HA tag antibody (anti-mouse anti-HA antibody, purchased from Beijing Kangwei Century Biotechnology Co., Ltd.) was added and placed at room temperature for 1 hour. (4) Unbound antibody was washed away with PBST, and anti-mouse alkaline phosphatase conjugate (goat anti-mouse alkaline phosphatase-labeled antibody, purchased from Amytech Co., Ltd.) was added and placed at room temperature for 1 hour. (5) Wash the unbound antibody with PBST, add alkaline phosphatase coloring solution, and read the absorbance at 405 nm on an ELISA apparatus. (6) When the OD value of the sample well is more than 3 times the OD value of the control well (Ratio+/−>3), it is judged as a positive clone hole. (7) The bacteria of the positive clone well were shaken in a LB liquid containing 100 μg per ml to extract a plasmid and perform sequencing.

[2] = target: T2, human PD-L1 protein (coated antigen); assay: ELISA, purified nanobody 10 ug/mL on coated PD-L1, anti-HA detection
Method: (§1) (1) Coated antigenic proteins PD-L1 and PD-L2: 0.5 μg per well (5 μg/mL, 100 μL), packaged NaHCO₃ (100 mM, pH8.2) was used as a blank control and overnight at 4° C. (2) Wash the cells three times with PBST the next day, add 200 μL of 1% BSA to block at room temperature for 2 hours. (3) Each purified nanobody was diluted to 10 μg/mL, and 100 pt of each of the purified nanobodies was incubated with the coated PD-L1, PD-L2 and the blank control group, and reacted at room temperature for 1 hour. (4) Unbound antibody was washed away with PBST, and 100 μL of mouse anti-HA tag antibody (1:2000 dilution) was added and placed at room temperature for 1 hour. (5) Unbound antibody was washed away with PBST, and anti-mouse alkaline phosphatase conjugate (1:2000 dilution) was added and placed at room temperature for 1 hour. (6) Wash the unbound antibody with PBST, add alkaline phosphatase coloring solution, and read the absorbance at 405 nm on an ELISA apparatus. The specificity of the nanobody was judged based on the absorption value.

[3] = target: T1, PD-L2 (coated antigenic protein); assay: ELISA, purified nanobody 10 ug/mL on coated PD-L2, anti-HA detection
Method: as §1

[4] = target: T2, human PD-L1 protein (coated antigen); assay: ELISA, purified nanobody 10 ug/mL, coated PD-L1 against coated PD-L2
Method: as §1

Binder | OD ratio (experimental group (A405 nm)/control group (A405 nm)) [1] | ELISA absorbance (A405 nm) [2] [A405 nm] | ELISA absorbance (A405 nm) [3] [A405 nm] | OD ratio (PD-L1/PD-L2) [4]
B1 | > 20 | 2.99 | 0.125 | 23.9
B2 | > 20 |  |  | 
B3 | > 20 |  |  | 
B4 | > 20 |  |  | 
B5 | > 20 |  |  | 
B6 | > 20 |  |  | 
B7 | > 20 | 3.44 | 0.115 | 29.9
B8 | > 20 | 2.9 | 0.116 | 25
B9 | > 20 | 2.36 | 0.112 | 21
B10 | > 20 | 3.38 | 0.128 | 26.4
B11 | > 20 | 3.51 | 0.137 | 25.6
B12 | > 20 | 3.51 | 0.119 | 29.5
B13 | > 20 | 3.56 | 0.131 | 27.2
B14 | > 20 |  |  | 
B15 | > 20 | 3.34 | 0.117 | 28.6
B16 | > 20 |  |  | 
B17 | > 20 | 3.37 | 0.133 | 25.3
B18 | > 20 | 3.63 | 0.114 | 31.8
